{
  "source": "paper doi:10.1101/2021.12.08.471876",
  "target": "purified recombinant GRP78 protein (GRP78-His) (human) (UniProt P11021)",
  "sequence (P11021 19-654)": "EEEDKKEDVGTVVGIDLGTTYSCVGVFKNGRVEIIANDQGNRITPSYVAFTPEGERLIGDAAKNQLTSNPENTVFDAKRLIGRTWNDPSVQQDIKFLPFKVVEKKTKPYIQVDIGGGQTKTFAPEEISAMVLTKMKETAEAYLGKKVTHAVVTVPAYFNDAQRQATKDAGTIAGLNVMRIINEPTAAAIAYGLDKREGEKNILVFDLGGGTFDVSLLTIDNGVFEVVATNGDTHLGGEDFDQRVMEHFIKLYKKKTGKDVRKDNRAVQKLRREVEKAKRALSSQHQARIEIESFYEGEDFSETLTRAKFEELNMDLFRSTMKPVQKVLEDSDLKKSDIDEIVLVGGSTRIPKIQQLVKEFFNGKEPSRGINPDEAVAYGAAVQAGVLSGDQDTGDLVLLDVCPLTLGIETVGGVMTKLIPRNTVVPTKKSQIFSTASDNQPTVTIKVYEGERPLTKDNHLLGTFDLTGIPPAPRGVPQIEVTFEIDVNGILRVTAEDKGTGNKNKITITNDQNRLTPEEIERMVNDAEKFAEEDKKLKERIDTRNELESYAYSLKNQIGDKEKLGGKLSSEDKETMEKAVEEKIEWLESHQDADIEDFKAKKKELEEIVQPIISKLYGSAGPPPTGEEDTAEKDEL",
  "assay": "ITC",
  "data": [
    {"substance": "HBV particles (from UniProt P03138;P03146) (complex)", "values": [
      {"measurement": "Kd", "result": 75.6, "unit": "µM"}
    ]}
  ]
}
